For 13 molecules, Kd results are on record in article PMC10786891, “Massively parallel profiling of RNA-targeting CRISPR-Cas13d”.

First the molecules themselves.
T1: EsCas13d, nuclease-dead (Eubacterium siraeum, UniProt B0MS50, R295A;H300A;R849A;H854A)
T1 sequence: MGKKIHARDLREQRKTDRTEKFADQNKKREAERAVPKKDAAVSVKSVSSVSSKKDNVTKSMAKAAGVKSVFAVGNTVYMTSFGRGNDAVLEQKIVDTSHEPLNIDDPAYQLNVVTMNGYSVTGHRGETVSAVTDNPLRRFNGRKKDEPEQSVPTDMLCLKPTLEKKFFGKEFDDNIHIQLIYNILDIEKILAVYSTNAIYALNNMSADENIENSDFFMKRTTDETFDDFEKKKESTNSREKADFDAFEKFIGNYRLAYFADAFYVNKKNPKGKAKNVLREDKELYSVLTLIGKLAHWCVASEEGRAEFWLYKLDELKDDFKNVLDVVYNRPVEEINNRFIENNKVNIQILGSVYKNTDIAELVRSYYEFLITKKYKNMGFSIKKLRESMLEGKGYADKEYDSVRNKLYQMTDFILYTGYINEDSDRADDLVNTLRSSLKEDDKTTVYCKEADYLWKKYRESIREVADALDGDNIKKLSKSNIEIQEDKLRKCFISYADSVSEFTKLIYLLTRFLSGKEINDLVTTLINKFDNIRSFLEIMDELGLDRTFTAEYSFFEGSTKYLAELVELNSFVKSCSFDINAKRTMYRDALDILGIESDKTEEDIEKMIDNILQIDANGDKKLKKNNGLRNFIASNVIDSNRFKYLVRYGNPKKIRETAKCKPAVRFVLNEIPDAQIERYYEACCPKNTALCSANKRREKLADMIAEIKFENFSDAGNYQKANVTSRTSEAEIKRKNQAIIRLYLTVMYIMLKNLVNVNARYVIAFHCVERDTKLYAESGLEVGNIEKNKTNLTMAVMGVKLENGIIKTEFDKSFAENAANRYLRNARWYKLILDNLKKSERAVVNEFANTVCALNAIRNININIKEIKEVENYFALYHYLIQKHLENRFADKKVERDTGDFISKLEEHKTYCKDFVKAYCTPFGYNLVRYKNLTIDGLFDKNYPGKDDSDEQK

B1: target 1 MT 5'PFS GUG 3'PFS AUG (mixed)
RNA 1: CACCCGUGCAAAAAUGCAGGGGUCUAAAACUGAGCGGAUAACCUCUCUAUGG
RNA 2: GGGAAUGGAUCCACAUCUACGAAUUCGUGCCAUAGAGAGGUUAUCCGCUCAAUGAGAUCGGAAGAGCACACGU
B2: target 1 MT 5'PFS ACC 3'PFS CAG (mixed)
RNA 1: CACCCGUGCAAAAAUGCAGGGGUCUAAAACUGAGCGGAUAACCUCUCUAUGG
RNA 2: GGGAAUGGAUCCACAUCUACGAAUUCACCCCAUAGAGAGGUUAUCCGCUCACAGAGAUCGGAAGAGCACACGU
B3: target 1 MT 5'PFS AAC 3'PFS ACU (mixed)
RNA 1: CACCCGUGCAAAAAUGCAGGGGUCUAAAACUGAGCGGAUAACCUCUCUAUGG
RNA 2: GGGAAUGGAUCCACAUCUACGAAUUCAACCCAUAGAGAGGUUAUCCGCUCAACUAGAUCGGAAGAGCACACGU
B4: target 1 insC 3' of 19,insG 3' of 9 (mixed)
RNA 1: CACCCGUGCAAAAAUGCAGGGGUCUAAAACUGAGCGGAUAACCUCUCUAUGG
RNA 2: GGGAAUGGAUCCACAUCUACGAAUUCGUACCAUCAGAGAGGUUAGUCCGCUCACCGAGAUCGGAAGAGCACACGU
B5: target 1 MT 5'PFS AAA 3'PFS UUG (mixed)
RNA 1: CACCCGUGCAAAAAUGCAGGGGUCUAAAACUGAGCGGAUAACCUCUCUAUGG
RNA 2: GGGAAUGGAUCCACAUCUACGAAUUCAAACCAUAGAGAGGUUAUCCGCUCAUUGAGAUCGGAAGAGCACACGU
B6: target 1 MT 5'PFS AAC 3'PFS ACA (mixed)
RNA 1: CACCCGUGCAAAAAUGCAGGGGUCUAAAACUGAGCGGAUAACCUCUCUAUGG
RNA 2: GGGAAUGGAUCCACAUCUACGAAUUCAACCCAUAGAGAGGUUAUCCGCUCAACAAGAUCGGAAGAGCACACGU
B7: target 1 MT 5'PFS GUG 3'PFS AUU (mixed)
RNA 1: CACCCGUGCAAAAAUGCAGGGGUCUAAAACUGAGCGGAUAACCUCUCUAUGG
RNA 2: GGGAAUGGAUCCACAUCUACGAAUUCGUGCCAUAGAGAGGUUAUCCGCUCAAUUAGAUCGGAAGAGCACACGU
B8: target 1 MT 5'PFS AAA 3'PFS UUA (mixed)
RNA 1: CACCCGUGCAAAAAUGCAGGGGUCUAAAACUGAGCGGAUAACCUCUCUAUGG
RNA 2: GGGAAUGGAUCCACAUCUACGAAUUCAAACCAUAGAGAGGUUAUCCGCUCAUUAAGAUCGGAAGAGCACACGU
B9: target 1 MT 5'PFS UAU 3'PFS UAA (mixed)
RNA 1: CACCCGUGCAAAAAUGCAGGGGUCUAAAACUGAGCGGAUAACCUCUCUAUGG
RNA 2: GGGAAUGGAUCCACAUCUACGAAUUCUAUCCAUAGAGAGGUUAUCCGCUCAUAAAGAUCGGAAGAGCACACGU
B10: target 1 MT 5'PFS CUC 3'PFS ACG (mixed)
RNA 1: CACCCGUGCAAAAAUGCAGGGGUCUAAAACUGAGCGGAUAACCUCUCUAUGG
RNA 2: GGGAAUGGAUCCACAUCUACGAAUUCCUCCCAUAGAGAGGUUAUCCGCUCAACGAGAUCGGAAGAGCACACGU
B11: target 1 MT 5'PFS GCA 3'PFS UCC (mixed)
RNA 1: CACCCGUGCAAAAAUGCAGGGGUCUAAAACUGAGCGGAUAACCUCUCUAUGG
RNA 2: GGGAAUGGAUCCACAUCUACGAAUUCGCACCAUAGAGAGGUUAUCCGCUCAUCCAGAUCGGAAGAGCACACGU
B12: target 1 MT 5'PFS UGU 3'PFS CUA (mixed)
RNA 1: CACCCGUGCAAAAAUGCAGGGGUCUAAAACUGAGCGGAUAACCUCUCUAUGG
RNA 2: GGGAAUGGAUCCACAUCUACGAAUUCUGUCCAUAGAGAGGUUAUCCGCUCACUAAGAUCGGAAGAGCACACGU
B13: target 1 MT 5'PFS UGU 3'PFS CUU (mixed)
RNA 1: CACCCGUGCAAAAAUGCAGGGGUCUAAAACUGAGCGGAUAACCUCUCUAUGG
RNA 2: GGGAAUGGAUCCACAUCUACGAAUUCUGUCCAUAGAGAGGUUAUCCGCUCACUUAGAUCGGAAGAGCACACGU

This data set concerns the target T1, EsCas13d, nuclease-dead. Briefly: crRNA (strand 1, pre-loaded); Mg2+; 40 mM Tris-HCl pH 7.5, 150 mM NaCl, 6 mM MgCl2, 1 mM DTT, 0.1% Tween-20, 0.2 mg/ml BSA; 25 C; 10 min per concentration, then washed. The settings on record: tags: His6-TwinStrep-SUMO cleaved; N-terminal SNAP kept (SNAP-Surface 488); label: 3' end held by stalled T7 RNA polymerase.
B1: binding was characterised by a dissociation constant (Kd) of 16.2 ± 1 nM.

As to B2, the Kd – broadly, the free concentration of one partner at which half of the binding sites on the other are occupied at equilibrium, for simple one-to-one binding – was around 36 nM.

The molecule B3 gave a Kd of 21 ± 7 nM.

With B4, binding was characterised by a dissociation constant (Kd) of 44 ± 5 nM.

As for B5, the equilibrium dissociation constant (Kd) was determined as 11.7 ± 1.55 nM.

The molecule B6 displayed a Kd of 80 ± 34.5 nM.

B7 came in with a dissociation constant Kd of 15.8 ± 1.4 nM.

B8 showed a Kd of 10.1 ± 1.45 nM.

The molecule B9 yielded a dissociation constant Kd of 34 ± 11 nM.

B10: binding was characterised by a dissociation constant (Kd) of 72 ± 33 nM.

In turn, B11 yielded a Kd of 13.7 ± 5.95 nM.

With B12, the Kd is 49 ± 19 nM.

On to B13, for which the Kd came to 28.9 ± 7.65 nM.
